Data as given in publication PMC8643669 (Nucleic Acids Research, 2021).

T1: purified recombinant nuclear cap-binding complex (CBC; heterodimer of CBP80 and CBP20) (human, UniProt Q09161;P52298)
T1 sequence 1: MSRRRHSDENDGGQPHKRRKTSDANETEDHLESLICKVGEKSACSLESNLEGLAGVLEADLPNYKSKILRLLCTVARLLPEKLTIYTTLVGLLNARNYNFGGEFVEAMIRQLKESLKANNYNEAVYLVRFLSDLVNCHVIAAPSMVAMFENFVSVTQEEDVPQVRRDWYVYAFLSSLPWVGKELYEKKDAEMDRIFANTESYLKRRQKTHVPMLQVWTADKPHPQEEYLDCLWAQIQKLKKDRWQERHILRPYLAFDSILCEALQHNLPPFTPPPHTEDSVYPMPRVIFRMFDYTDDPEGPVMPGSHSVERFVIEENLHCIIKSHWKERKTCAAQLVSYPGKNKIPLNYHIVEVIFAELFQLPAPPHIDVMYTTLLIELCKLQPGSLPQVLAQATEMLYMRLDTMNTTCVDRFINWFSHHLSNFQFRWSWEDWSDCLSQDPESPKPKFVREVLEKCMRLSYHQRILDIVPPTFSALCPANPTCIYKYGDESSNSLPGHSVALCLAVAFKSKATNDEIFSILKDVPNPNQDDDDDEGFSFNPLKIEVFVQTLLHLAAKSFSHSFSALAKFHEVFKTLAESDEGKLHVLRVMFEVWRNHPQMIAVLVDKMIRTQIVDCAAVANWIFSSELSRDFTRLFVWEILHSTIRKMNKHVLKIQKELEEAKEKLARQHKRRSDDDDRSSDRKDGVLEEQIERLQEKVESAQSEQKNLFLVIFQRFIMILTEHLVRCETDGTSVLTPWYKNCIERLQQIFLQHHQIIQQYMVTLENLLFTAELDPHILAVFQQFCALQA
T1 sequence 2: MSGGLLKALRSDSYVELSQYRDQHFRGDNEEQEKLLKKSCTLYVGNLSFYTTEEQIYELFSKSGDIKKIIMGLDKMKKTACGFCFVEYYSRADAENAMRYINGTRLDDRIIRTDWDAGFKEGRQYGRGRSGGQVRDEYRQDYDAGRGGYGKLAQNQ

T2: CBP80, subunit of the purified recombinant CBC (human, UniProt Q09161 1-790)
T2 sequence: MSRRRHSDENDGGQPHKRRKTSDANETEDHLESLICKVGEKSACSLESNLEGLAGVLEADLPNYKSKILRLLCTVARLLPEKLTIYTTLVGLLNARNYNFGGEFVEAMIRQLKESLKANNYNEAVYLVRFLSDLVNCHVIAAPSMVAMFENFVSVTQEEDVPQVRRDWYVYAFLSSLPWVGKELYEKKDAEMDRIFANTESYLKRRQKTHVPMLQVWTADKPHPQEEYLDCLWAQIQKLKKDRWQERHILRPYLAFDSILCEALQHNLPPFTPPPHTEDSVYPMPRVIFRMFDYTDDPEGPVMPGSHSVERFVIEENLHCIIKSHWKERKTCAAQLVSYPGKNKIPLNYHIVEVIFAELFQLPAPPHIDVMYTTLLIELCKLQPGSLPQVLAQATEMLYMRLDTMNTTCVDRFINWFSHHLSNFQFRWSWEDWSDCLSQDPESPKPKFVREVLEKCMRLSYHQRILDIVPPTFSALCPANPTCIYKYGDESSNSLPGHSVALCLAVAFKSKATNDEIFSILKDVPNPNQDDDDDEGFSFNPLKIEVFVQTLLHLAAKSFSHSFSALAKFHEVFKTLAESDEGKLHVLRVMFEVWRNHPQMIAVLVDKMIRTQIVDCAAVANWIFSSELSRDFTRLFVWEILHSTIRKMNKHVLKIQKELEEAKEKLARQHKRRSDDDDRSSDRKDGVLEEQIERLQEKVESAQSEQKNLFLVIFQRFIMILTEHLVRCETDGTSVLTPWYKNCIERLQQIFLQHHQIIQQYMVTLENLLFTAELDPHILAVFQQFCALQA


What was measured:
[1] = molecular target: T1, purified recombinant nuclear …; assay: pull-down
[2] = molecular target: T2, CBP80, subunit of the purified …; assay: far-Western, overlay or dot blot

| binding result [1] | binding result [2] | Binder |
| --- | --- | --- |
| binds |  | purified recombinant FLAG-SRP54-NG (residues 1-293) (domain or fragment) MVLADLGRKITSALRSLSNATIINEEVLNAMLKEVCTALLEADVNIKLVKQLRENVKSAIDLEEMASGLNKRKMIQHAVFKELVKLVDPGVKAWTPTKGKQNVIMFVGLQGSGKTTTCSKLAYYYQRKGWKTCLICADTFRAGAFDQLKQNATKARIPFYGSYTEMDPVIIASEGVEKFKNENFEIIIVDTSGRHKQEDSLFEEMLQVANAIQPDNIVYVMDASIGQACEAQAKAFKDKVDVASVIVTKLDGHAKGGGALSAVAATKSPIIFIGTGEHIDDFEPFKTQPFISK |
|  | binds | FLAG-SRP54 full-length (p3×FLAG-SRP54-FL) (natural protein) MVLADLGRKITSALRSLSNATIINEEVLNAMLKEVCTALLEADVNIKLVKQLRENVKSAIDLEEMASGLNKRKMIQHAVFKELVKLVDPGVKAWTPTKGKQNVIMFVGLQGSGKTTTCSKLAYYYQRKGWKTCLICADTFRAGAFDQLKQNATKARIPFYGSYTEMDPVIIASEGVEKFKNENFEIIIVDTSGRHKQEDSLFEEMLQVANAIQPDNIVYVMDASIGQACEAQAKAFKDKVDVASVIVTKLDGHAKGGGALSAVAATKSPIIFIGTGEHIDDFEPFKTQPFISKLLGMGDIEGLIDKVNELKLDDNEALIEKLKHGQFTLRDMYEQFQNIMKMGPFSQILGMIPGFGTDFMSKGNEQESMARLKKLMTIMDSMNDQELDSTDGAKVFSKQPGRIQRVARGSGVSTRDVQELLTQYTKFAQMVKKMGGIKGLFKGGDMSKNVSQSQMAKLNQQMAKMMDPRVLHHMGGMAGLQSMMRQFQQGAAGNMKGMMGFNNM |
